From article PMC11300487, “C-phycocyanin reinforces autophagy to block pulmonary fibrogenesis by inhibiting lncIAPF biogenesis” (Archives of Pharmacal Research, 2024)

Molecular target: T1, C-phycocyanin (Spirulina platensis, UniProt P72509 1-162; P72508 1-172)
T1 construct: C-phycocyanin alpha subunit, Spirulina platensis; C-phycocyanin beta subunit, Spirulina platensis; the source organism is told in the introduction only; also called C-PC; source: bought: Aladdin, Shanghai
Assay: SPR; equilibrium dissociation constant; who was immobilised and the conditions not given
Conditions: both partners purified

B1: activating transcription factor 3 (natural protein, UniProt P18847 1-181, looked up)
chain: MMLQHPGQVSASEVSASAIVPCLSPPGSLVFEDFANLTPFVKEELRFAIQNKHLCHRMSSALESVTVSDRPLGVSITKAEVAPEEDERKKRRRERNKIAAAKCRNKKKEKTECLQKESEKLESVNAELKAQIEELKNEKQHLIYMLNLHRPTCIVRAQNGRTPEDERNLFIQQIKEGTLQS
notes: ATF3 as used in the SPR experiment; the ATF3 protein used there is not described; also called ATF3
Kd: 683 nM
